Measured values taken from patent publication US20140221623A1 (Ablynx, published 2014).
Substitutions are numbered along the chain they refer to. Several values for one entry are separate records, joined by “and”; a condition that tells them apart may be missing. Equal values may be shown once. Read-outs that look alike come from different tables or passages of the source.

T1: IL6-R on U266 cells (human, UniProt P08887 20-468)
T1 sequence (looked up): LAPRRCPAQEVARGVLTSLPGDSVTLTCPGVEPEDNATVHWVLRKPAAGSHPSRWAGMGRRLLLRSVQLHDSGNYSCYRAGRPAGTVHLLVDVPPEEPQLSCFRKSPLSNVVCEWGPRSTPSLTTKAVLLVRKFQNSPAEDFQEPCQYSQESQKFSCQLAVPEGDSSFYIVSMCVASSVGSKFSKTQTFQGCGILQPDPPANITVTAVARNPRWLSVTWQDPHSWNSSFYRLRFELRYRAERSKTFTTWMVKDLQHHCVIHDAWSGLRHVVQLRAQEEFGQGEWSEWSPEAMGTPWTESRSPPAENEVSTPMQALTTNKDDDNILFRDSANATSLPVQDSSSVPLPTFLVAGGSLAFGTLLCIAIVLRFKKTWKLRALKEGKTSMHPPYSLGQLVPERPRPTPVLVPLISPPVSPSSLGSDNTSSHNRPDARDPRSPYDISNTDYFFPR

T2: Human soluble IL6-R (human, UniProt P08887 20-358)
T2 construct: Bought soluble receptor; biotinylated in some Alphascreen assays; also called sIL6-R; hIL-6R
T2 sequence (looked up): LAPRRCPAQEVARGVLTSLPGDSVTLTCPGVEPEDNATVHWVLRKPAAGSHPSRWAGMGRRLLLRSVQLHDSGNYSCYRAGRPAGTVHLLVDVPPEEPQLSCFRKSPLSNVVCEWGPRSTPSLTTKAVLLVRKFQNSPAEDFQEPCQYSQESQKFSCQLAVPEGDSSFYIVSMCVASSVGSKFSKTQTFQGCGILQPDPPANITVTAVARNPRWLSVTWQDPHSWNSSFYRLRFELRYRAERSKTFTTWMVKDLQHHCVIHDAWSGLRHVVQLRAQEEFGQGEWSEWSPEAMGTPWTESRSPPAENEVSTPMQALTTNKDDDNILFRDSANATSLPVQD

B1: IL6R04 (VHH)
VHH: EVQLVESGGGLVQAGGSLRLSCAASGFTFDDYDIGWFRQAPGKEREGVSGISSSDGNTYYADSVKGRFTISSDNAKNTVYLQMNSLKPEDTAVYYCAAEPPDSSWYLDGSPEFFKYWGQGTQVTVSS
notes: also called PMP32C9; PMP 32 C9
B2: IL6R14 (VHH)
VHH: EVQLVESGGGLVQPGGSLRLSCAASGFSLDYYAIGWFRQAPGKEREGVSCMDSSSGTTSTYYSDSVKGRFTISRDDAKNTVYLQMNSLKPEDTAVYYCAADGHLNWGQRYVPCSQISWRGWNDYWGQGTQVTVSS
notes: also called PMP40H5; PMP 40 H5
B3: IL6R11 (VHH)
VHH: EVQLVESGGGLVQAGGSLRLSCAASGFTFDDYAIGWFRQAPGKEHEGVSCISSSDGSTYYADSVKGRFTISSDNAKNTVYLQMNSLKPEDTAVYYCAAERDVPARSLCGSYYWYDYRGQGTQVTVSS
notes: also called PMP35E11; PMP 35 E11
B4: IL6R12 (VHH)
VHH: EVQLVESGGGLVQAGGSLRLSCAASGRTFSSYDMGWYRQAPGKEREFVAIITWNSSTYYADSVKGRFTISRDNAKNTVYLQMNSLKPEDTAIYYCNAQYGLGYAEDYWGQGTQVTVSS
notes: also called PMP35F4; PMP 35 F4
B5: IL6R03 (VHH)
VHH: EVQLVESGGGLVQAGGSLRLSCAASGSIFKVNAMGWYRQAPGKQRELVAGIISGGSTNYADSVKGRLTISRDNAKNTVYLQMNSLKPEDTAVYYCSFVTTNSDYDLGRDYWGQGTQVTVSS
notes: also called PMP31A4; PMP 31 A4
B6: IL6R06 (VHH)
VHH: EVQLVESGGGLVQAGGSLRLSCAASGNIFDDNTMGWTWNRQPPGKQRELVAIIATDGSTNYADSVKGRFTISRDNAKNTVYLQMNSLKPEDTAVYYCNLFSLRLGRDYWGQGTQVTVSS
notes: also called PMP32E2; PMP 32 E2
B7: IL6R07 (VHH)
VHH: EVQLVESGGGLVQPGGSLRLSCAASGFTLDYGAIGWFRQAPGKEREGVSCISSSTGSTYYADSVKGRFTISRDNGKNTVYLQMNSLKPEDTAVYYCAADKMWSPCLVAANEEALFEYDYWGQGTQVTVSS
notes: also called PMP33A3; PMP 33 A3
B8: IL6R09 (VHH)
VHH: EVQLVESGGGLVQAGGSLRLSCAASGRTSSSYDMTWYRQVPGKEREFVAVISWSGGSTYYADSVKGRFTISRDNAKNTVYLQMNSLKPEDTAIYYCNAYTGGGDDYWGQGTQVTVSS
notes: also called PMP34G9; PMP 34 G9
B9: IL6R10 (VHH)
VHH: EVQLVESGGGLVQAGGSLRLSCAASGRTFSSYDMGWYRQAPGKEREFVAVIHWSSGSTYYADPVKGRFTISRDNAKNTVYLQMNSLKPEDTAIYYCNAFLPGPEGFHDYWGQGTQVTVSS
notes: also called PMP35C10; PMP 35 C10
B10: IL6R13 (VHH)
VHH: EVQLVESGGGLVQPGGSLRLSCAASGFTFDDYGMSWVRQAPGRATEWVSAISWNGNNTYYTESMKGRFTISRDNAKNTVYLQMNSLKPEDTAVYYCVKGSTAIVGVPPTYPDEYDYWGQGTQVTVSS
notes: also called PMP35H4; PMP 35 H4
B11: IL6R88 (VHH)
VHH: B10 VHH with R43K, A44G, V79L, K87R, Q122L
notes: Humanized variant of IL6R13
B12: IL6R05 (VHH)
VHH: EVQLVESGGGLVQPGGSLRLSCAASGFTFGSYDMSWVRQAPGKGPEWVSAINSGGGSTYYADSVKGRFTISRDNAKNTLYLQMNSLKPEDTAVYYCATDWRYSDYDLPLPPPGDYWGQGTQVTVSS
notes: also called PMP32E10; PMP 32 E10

What was measured:
IL6-R on U266 cells [1] = biological target: T1, IL6-R on U266 cells; assay: cell-based or functional assay
IL6-R on U266 cells [2] = biological target: T1, IL6-R on U266 cells; assay: cell-based or functional assay; remark: listed apart in the source
IL6-R on U266 cells [3] = biological target: T1, IL6-R on U266 cells; assay: cell-based or functional assay; remark: listed apart in the source
IL6-R on U266 cells [4] = biological target: T1, IL6-R on U266 cells; assay: cell-based or functional assay; remark: listed apart in the source
Human soluble IL6-R [5] = biological target: T2, Human soluble IL6-R; assay: SPR (Biacore), off-rate
Human soluble IL6-R [6] = biological target: T2, Human soluble IL6-R; assay: SPR (Biacore 3000), IL6-R on CM5 chip
Human soluble IL6-R [7] = biological target: T2, Human soluble IL6-R; assay: SPR (Biacore 3000), IL6-R on CM5 chip; remark: listed apart in the source
Human soluble IL6-R [8] = biological target: T2, Human soluble IL6-R; assay: Alphascreen, 100 nM Nanobody; competitor Reference-Fab on beads
Human soluble IL6-R [9] = biological target: T2, Human soluble IL6-R; assay: SPR (Biacore 3000), IL6-R on CM5 chip; remark: listed apart in the source
Human soluble IL6-R [10] = biological target: T2, Human soluble IL6-R; assay: SPR (Biacore 3000), IL6-R on CM5 chip; row without label, read as kd

Row | Molecule | IC50 (+1% HSA), TF-1 proliferation (IL6-R on U266 cells [1]) | IC50 (w/o HSA), TF-1 proliferation (IL6-R on U266 cells [1]) | IC50, XG-1 proliferation (IL6-R on U266 cells [1]) [nM] | IC50, XG-1 proliferation (IL6-R on U266 cells [2]) [nM] | IC50, TF-1 proliferation (IL6-R on U266 cells [3]) [nM] | IC50, XG-1 proliferation with 1 mg/mL human serum albumin (IL6-R on U266 cells [4]) [nM] | koff (Human soluble IL6-R [5]) [s⁻¹] | Kd (Human soluble IL6-R [6]) | koff (Human soluble IL6-R [6]) | kon (Human soluble IL6-R [6]) | Kd (Human soluble IL6-R [7]) [nM] | koff (Human soluble IL6-R [7]) [s⁻¹] | kon (Human soluble IL6-R [7]) [M⁻¹ s⁻¹] | % binding retained in competition with Reference-Fab (Human soluble IL6-R [8]) [%] | Kd (Human soluble IL6-R [9]) [nM] | koff (Human soluble IL6-R [9]) [s⁻¹] | kon (Human soluble IL6-R [9]) [M⁻¹ s⁻¹] | koff (Human soluble IL6-R [10]) [s⁻¹]
1 | MAb BR-6 (antibody) | 0.088 | 0.042 | 0.064 |  |  |  |  |  |  |  |  |  |  |  |  |  |  | 
2 | MAb BN-12 (antibody) |  |  | 0.272 |  |  |  |  |  |  |  |  |  |  |  |  |  |  | 
3 | B1 |  |  |  | 0.089 | 0.545 | 0.099 | 0.00015 | 0.26 nM | 9.42e-05 s⁻¹ and 0.00015 s⁻¹ | 365000 M⁻¹ s⁻¹ | 0.2 | 0.000112 | 536000 | 50 |  |  |  | 
4 | B2 |  |  |  | 0.603 | 1.75 | 0.751 | 0.000114 | 0.25 nM | 0.0001 s⁻¹ and 0.000114 s⁻¹ | 402000 M⁻¹ s⁻¹ |  |  |  | 96 |  |  |  | 
5 | B3 |  |  |  | 5.37 | 6.62 |  | 0.000417 | 0.87 nM and 1.85 nM | 0.00034 s⁻¹ and 0.000396 s⁻¹ and 0.000417 s⁻¹ | 391000 M⁻¹ s⁻¹ and 215000 M⁻¹ s⁻¹ |  |  |  | 40 |  |  |  | 
6 | B4 |  |  |  | 2.75 | 6.92 |  | 0.000896 | 1.71 nM | 0.00116 s⁻¹ and 0.000896 s⁻¹ | 678000 M⁻¹ s⁻¹ |  |  |  | 103 |  |  |  | 
7 | B5 |  |  |  | 16.2 | 28.1 | 17.5 | 0.0016 | 3.03 nM | 0.00147 s⁻¹ and 0.0016 s⁻¹ | 484000 M⁻¹ s⁻¹ |  |  |  | 5 |  |  |  | 
8 | B6 |  |  |  | 42 | 77.2 |  | 0.000886 | 7.1 nM |  | 1.07e+06 M⁻¹ s⁻¹ |  |  |  | 36 |  |  |  | 
9 | B7 |  |  |  | 50.5 | 35 |  | 0.000242 |  | 0.000242 s⁻¹ |  |  |  |  | 80 |  |  |  | 
10 | B8 |  |  |  | 2.75 | 10 | 2.98 | 0.00139 | 2.01 nM and 1.17 nM | 0.0013 s⁻¹ and 0.00139 s⁻¹ and 0.00129 s⁻¹ | 641000 M⁻¹ s⁻¹ and 1.11e+06 M⁻¹ s⁻¹ |  |  |  | 62 |  |  |  | 
11 | B9 |  |  |  | 2.55 | 9.15 |  | 0.000509 | 1.27 nM | 0.000526 s⁻¹ and 0.000509 s⁻¹ | 414000 M⁻¹ s⁻¹ |  |  |  | 102 |  |  |  | 
12 | B10 |  |  |  | 1.4 | 7.2 | 1.32 | 0.000178 | 0.53 nM and 0.79 nM | 0.000121 s⁻¹ and 0.000109 s⁻¹ and 0.000178 s⁻¹ | 231000 M⁻¹ s⁻¹ and 137000 M⁻¹ s⁻¹ |  |  |  | 25 |  |  |  | 
13 | B11 |  |  |  |  |  |  |  |  |  |  |  |  |  |  | 0.9 | 0.00031 | 230000 | 0.000213
14 | B12 |  |  |  | 7.29 | 19.9 |  | 0.00127 | 9.79 nM | 0.00141 s⁻¹ and 0.00127 s⁻¹ | 144000 M⁻¹ s⁻¹ |  |  |  | 64 |  |  |  | 
